Data published in publication PMC7666153, “The phosphorylated regulator of chemotaxis is crucial throughout biofilm biogenesis in Shewanella oneidensis” (NPJ Biofilms and Microbiomes, 2020).

Target: the molecule itself
Assay: cross-linking; Strep-tagged CheY3 (11.8 µM) and His-tagged SO4207S (3.1 µM), together or separately, 5 mM EDC, 1 h at room temperature, 10 mM cacodylate buffer; SDS-PAGE and blot with HisProbe-HRP

B1: His-tagged SO4207S (soluble cytoplasmic domain of SO4207, D388 to N625) (domain or fragment, S. oneidensis, UniProt Q8E9Q9 388-625, looked up)
chain: DERKAKQRIQQEALKQAQKIRSAREEALKVEAETNERLEQKVQERTLELEITLRELHEVNQKLTEQSTIDSLTGVKNRSAFDKRLLAESRISRRQETPIALLMLDIDRFKSINDQFGHLAGDQALKLIAQTLQQHLKRPTDLVSRFGGEEFAIILPNTTADGALQVAESIRDTVSCIGLTWEGKPIPLTVSIGVSADVIMNEQHSTELLEQADKALYQAKNSGRNQVKLYAPAQTEPN
notes: diguanylate cyclase SO4207 of Shewanella oneidensis, cytoplasmic domain D388 to N625, devoid of the transmembrane segments; Cloned into pET21b; printed mass 30 kDa; also called pET-SO4207S; source: E. coli BL21 (DE3), purified (HisTrapFF); not shown: 6xHis-tag, C-terminal, kept
stoichiometry N: 2
